Reference: patent publication US20040009568A1, “Catalytic domains of the human hepatocyte growth factor receptor tyrosine kinase, and materials and methods for identification of inhibitors thereof” (priority 2001, published 2004)

Molecular target: T1, phosphorylated HGFR (pHGFR) (Homo sapiens, UniProt P08581)
T1 construct: The cDNA corresponding to residues 1051-1349 of the HGFR kinase catalytic domain (HGFRkd) was cloned into a pFastBac plasmid; added N-terminal methionine (start codon of the NcoI site) (N); made in house; host or cells: Sf9 insect cells, recombinant baculovirus; then autophosphorylated in vitro with MgATP
Assay: Coupled enzymatic (PK/LDH) kinase assay, phospho-HGFR
Assay type: biochemical
Conditions: coupled, enzymatic format; phosphorylation state of HGFR not stated; read-out: Km, Dephosphorylated α-casein
Experimental: A coupled enzymatic assay format was used to measure both HGFR and phospho-HGFR(PHGFR) activities. The kinase-catalyzed production of ADP from ATP that accompanies phosphate transfer to the random copolymer poly(Glu4Tyr) or peptide substrate was coupled to the oxidation of NADH through the activities of pyruvate kinase (PK) and lactate dehydrogenase (LDH). NADH conversion to NAD^+ was monitored by the decrease in absorbance at 340 nm (ε=6.22 cm^−1 mM^−1) using a Beckman DU650 spectrophotometer. A typical reaction solution contained 1 mM phosphoenolpyruvate, 0.24 mM NADH, 40 mM MgCl2, 5 mM DTT, poly(Glu4Tyr), ATP, 15 units/mL PK, 15 units/mL LDH in 100 mM HEPES, pH 7.5. […]
The kinetic consequences of the autophosphorylation were investigated. HGFR and pHGFR activities were evaluated in two distinct and complementing assay formats. […] NADH conversion to NAD^+ was monitored spectrophotometrically by the decrease in absorbance at 340 nm (ε=6.22 cm^−1 mM^−1). […]
Inhibition of HGFR and pHGFR were monitored in two distinct assay formats to insure valid results. The coupled, enzymatic format (CE) was a continuous assay that measured ADP production through the sequential action of two standard coupling enzymes (pyruvate kinase and lactate dehydrogenase). The radioactive assay format was a discontinuous assay that measured phospho-protein production directly. […]

T1 sequence (P08581 1051-1349): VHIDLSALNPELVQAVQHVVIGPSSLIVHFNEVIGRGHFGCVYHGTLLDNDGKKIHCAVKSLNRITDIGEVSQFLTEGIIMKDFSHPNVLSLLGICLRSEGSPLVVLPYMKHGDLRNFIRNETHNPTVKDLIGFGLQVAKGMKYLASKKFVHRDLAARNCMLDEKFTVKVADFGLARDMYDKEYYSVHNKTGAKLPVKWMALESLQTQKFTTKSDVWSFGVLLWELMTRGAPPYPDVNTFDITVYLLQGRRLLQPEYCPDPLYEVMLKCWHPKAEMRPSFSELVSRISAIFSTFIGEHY

B1: Dephosphorylated α-casein: phosphoacceptor protein substrate for HGFR (protein)
chain: RPKHPIKHQGLPQEVLNENLLRFFVAPFPEVFGKEKVNELSKDIGSESTEDQAMEDIKQMEAESISSSEEIVPNSVEQKHIQKEDVPSERYLGYLEQLLRLKKYKVPQLEIVPNSAEERLHSMKEGIHAQQKEPMIGVNQELAYFYPELFRQFYQLDAYPSGAWYYVPLGTQYTDAPSFSDIPNPIGSENSEKTTMPLW
Km: 28.5 ± 3.5 µM
